Experimental findings from patent US20130323248A1 (SORRENTO THERAPEUTICS, published 2013) are described below.

The assay deals with T1, human DLL-4 expressed on the surface of CHO-K1 cells (CHO-DLL-4 cells) (human, UniProt Q9NR61 27-685).
T1 construct: whole, on cells; also called cell surface expressed DLL-4; cellular human DLL-4
Briefly: flow cytometry (HTFC) on CHO-K1 cells stably expressing DLL-4. As to the method:
Cells stably expressing DLL-4 were incubated with 1 μg/ml of anti-DLL-4 antibodies as indicated. The binding was analyzed by flow cytometry (HTFC, Intellicyt).
This example illustrates in vitro data for cell binding as part of an initial screen for several disclosed antibodies. CHO-K1 cells stably expressing DLL-4 (CHO-DLL-4 cells) were lifted in enzyme-free Dissociation Buffer and transferred to V-Bottom 96 well-plates (100,000 cells/well). Cells were incubated with anti-DLL-4 Antibodies in FACS buffer (PBS+2% FBS)+NaN₃ on ice for 45 min. After 2 washes in FACS buffer, a 1:1000 dilution of Phycoerythrin conjugated anti-Human IgG (γ-chain specific) was added and incubated for 30 min. Following a final wash, fluorescence intensity was measured on an Intellicyt High Throughput Flow Cytometer (HTFC). Data were analyzed using Graphpad Prism software using non-linear regression fit. Data points are shown as the median fluorescence intensity (MFI) of positively labeled cells +/− Standard Error. EC₅₀ values are reported as the concentration of antibody to achieve 50% of maximal DLL-4 antibodies binding to DLL-4 expressing cells.

B1: anti-DLL-4 antibody C3 (antibody, V domains shown)
VH: QVQLVQSGSELKKPGASVKVSCKASGYTFTSYYMHWVRQVPGQGLEWMGIINPSGGSTSYAQKFQGRVTMTRDTSTSTVYMELSSLRSEDTAVYYCATDYYDSSGYVDFDYWGQGTLVTVSS
VL: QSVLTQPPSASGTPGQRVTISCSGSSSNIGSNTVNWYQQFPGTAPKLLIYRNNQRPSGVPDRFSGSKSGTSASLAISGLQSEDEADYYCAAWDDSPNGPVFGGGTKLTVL
notes: it was detected with anti-human IgG (gamma-chain specific)
In the case of B1, the binding result is reported as “binds”.

B2: anti-DLL-4 antibody G6 (antibody, V domains shown)
VH: EVQLVESGGSLVQPGGSLRLSCAASGFTFSNGWMTWLRQAPGKGLEWVATIKPDGSDTAYVESVKGRFTISRDNAKNLLYLQMDSLRGDDTAVYFCARDLAYNAFDIWGQGTMVTVSS
VL: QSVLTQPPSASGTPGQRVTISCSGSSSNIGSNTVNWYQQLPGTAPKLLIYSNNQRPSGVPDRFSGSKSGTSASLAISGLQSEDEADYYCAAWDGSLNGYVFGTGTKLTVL
notes: Fully human antibody of an IgG class
Consider B2, for which the binding result is on record as “binds”.
